Assay results reported in the DeepSol protein solubility set.

assay: soluble on expression in E. coli; label from the status in PepcDB or PDB records

Row | Sequence | soluble on expression in E. coli
1 | MGSDKIHHHHHHMCNISHSQVQYLATKGDGDLPAGTAAGTGRTRTFTLEEARIWVQKVSDIYQTPLVTRLKEPDGKIIITAQLKGGSAKTTTTMCLAQGLSLRGRKVLVLDLDPQASLSELCGLYAEKDVTPEDTVLPYIYDQEIEGGLEARVQSTYWDGIDVIPAHTELIGAEFHLPAMQKMRPGFRFWTVLRQGLEPLRKKYDYILMDTSPSLSYLNLNALMAADAMVMPMVPENLDFISSLSFWRLFSDVSKSFIKYEKDKKYDFVSLILSRVDYGRNSSAPIVRAWAQSAYENWLHSIEVPASSVMSTGALAFSTVFDISSTHSASKSLQRVRQPLIDYCRWVDEIYSEKWRSAQ | not soluble
2 | MGSDKIHHHHHHMDAAAAPERIDLAGLVADLNALLRLKTTVIGMKLFRTVAEMEAVPKIRRPNAIHTTDQIVSMASRLGWTVGITAADLVGEQCRAVIGLAPQDAAWLAGRSYVGVWHATPEDASARQQALDVVPFGHHQAMAVSPLASGRLDPPDICLVYATPGQMIILINGLQYAGYKKFEWSVVGETACADSWGRALKTGEPSLSLPCFAERRYGGVPDEEMLMALSPAHLAKAIDGMKQLAKNGLRYPIAPYGIQADVRAGMGVSYGNK | not soluble
3 | MGSDKIHHHHHHMDAANVDLKAFTEDFYHRLCGAHLESVKETLVYLKHETDVWVEVTTLLIPGENDSPEEIDAQTKWMMAALGPDVPLHFSAFHPDWKMKDKTNTPPETLTRARDIAIRNGLRYVYTGNVHDPAGGGTYCSGCGALLIGRDWYELSTWALTPEGHCRECGTPLPGRFEAAPGTWGRKRQPVRFQR | not soluble
4 | MGSDKIHHHHHHMDDIKSQIKELRLGAKIRKLRQDRRLTLQELSELSGLSKPLLSQIENDQVTPPIATLLKISKGLKVGIHYFFEEEEDQQKVVLTRAAQQQPTRRRSGNDAPHGYIYRSLAPGIRHKPMEPFLVEFELTDWSDSFFYRHDGFEFIYLLDGELEFHYGSDVMRLLPGDSIYYDSSEPHGYVSVGEERARAVAVLYTRD | not soluble
5 | MGSDKIHHHHHHMDERWMVMKITIVFENHAGYRKGLIGYHGFSALVEANGYRVLVDTGTDGKVLLNNMSELGISPDDIDALFITHGHYDHTGGLRELLSARTEALDIYAHPGIFKRRLALKPKKREIGIPFTREELEELGGKFILSDKSKEILPGFISSGEIERITWDRAVGYFPDGSKDPVRDDMALIVEEGSKSVVITGCGHSGIINIAIHSKKLTNNRIAALIGGFHLKGIERSLLDEAVKKLRELEIEKLYPGHCTGIEEFAYLWSKFGNVEGIHVGKEIKI | not soluble
6 | MGSDKIHHHHHHMDFAAIDKQISALEACIDSTVEVTPGEQLSVGVDLGTAYIVVVVLNAAGSPVACAMEFAQVIKDGLVVDYVGATRIVRRLVQQLEERLGRQLTHAAIAVPPGTGHKDSNTHRHVVEGAGLEVTAILDEPTAANAVLGVQNGVIVDIGGGTTGLSVIEDGKVTYVADEPTGGTHVSLVLAGSYRISFTEAEELKKDQDRQREILPVVRPVIQKMASIVNRHIEGRDISAIYLVGGTCCLKDFETVFEKETGRPVYKPANPFLVTPLGIALNCNA | not soluble
7 | MGSDKIHHHHHHMDFDTGRRIDRRAIPADAVEGTWTASDGHPIRRIDWPGHSEPDAPTAPRGSLLFLPGRGDFYEKYLESLDYWHCEGWRVTALDWRGQAGSGRLSSDPMTGHVPDFGLWLDDLGAFWTDWVRDTPGPHVVVGHSMGGHLVLRALAERRIDPAAVVLSAPMLGFLTPGPNRVLHRVAEFMCRIGDPERSAWKSSEKPGATTAARNTLLTHDEARYGDETHWKTVRPELAMGPGSWRWVERAYASMLVLDRPGLLEAVDVPVLLLAARHDGLVSWRAIERAARRLPRAQLMTWGREARHELLREADPVRDKVMHAIDDFLDRLAPPTGEDAPA | not soluble
8 | MGSDKIHHHHHHMDHIQAMRVFVRIVELGSFSRAAERLALPRATVSNTIKQLEGRLGVRLLQRTTRQVQITDEGRVYYERCLQLLAEIEEIDTLFTQQKLQPVGKVRVDMPHSLAREIVVPALGEFYARYPQVTLMLSANDAAINVLREGVDCVLRAWQTDDETLATRHLPSMPQVTCASADYLARYGVPRSLDELSGHHMVGYFSLRTEYLYPLEFMSGDERITRMLPGTLQVNGADAYIAGACAGLGIIQAPRRGLISLLDGGELVEILPEIPPPAMPLYVMYTPGRFLAPRIRVFIEWLDELFTRNAAVR | not soluble
9 | MGSDKIHHHHHHMDIEDLRTFVAVADAGGVSAAARRLGISKSIVSRRLFRIEAELGVQLLARTTRGAALTEAGITFRDHAARASAEIDTARETILPAGELHGRLRIAMPLTFGPTHFAPVLAEMARQHPQLHIHTSYSDRFVDLIAEGFDCAIRGAYLQDSNLIAKRVGPIHGKLVASPAYIKAHGSPEMVEQLVNHQALMQGTEAWQFMDGDRIVTVQPQGKFKADSATALAAAAAAGLGIAWLPDCITHAYLASGALVPIMTRYPVPPGAVYVVRPPSQHPARKVRVLTEMLTEYFKRTPELWGVDG | not soluble
10 | MGSDKIHHHHHHMDINLRFFSRLNPWLNSLFTSKATLKTEIDEAQQGQMSLKTIANQYPLQARRGPITQVMLYQSLYASDDFVGREKQLNQITDVINQWRNHHGEISAIVSPAGSGGSSFLGQLPPLLQTIIADDAKKAPMPDVKPLPSKWLLMSFYQAPLGANGAIAHVCYCFGITPPNTITETIAAINQQPPQLIMIDDMHKLMLRMMGNNQALVTFATIVMETRKHHCWIMGCEIFAWQRLSAQYQIHHFIKHVFQLDYFSETELATIQTKHLLDLGLISNDVMAKETTTTPPNNTNKSTKEQTEQANIEQVDIVNPYKDQLKQLYTISQGHPKLASLLLQYSLAHQVDIGSDNSSNSRSNNGIDICRINSSVLQQCQDNDLFSVAEIYVHGGLRVSQHAHIFAITIEQSSLQLEYLARQGLIIAQYSQQDFAEHFYFITPTLSKIIANHLVNNNKLFN | not soluble
11 | MGSDKIHHHHHHMDIPWLVERDDRNERIVLSIKTNAKEALENAYRKKSRVTGKMIAYVHDSCANFFCEEGWLQEGAVSTYFHNGQANVFSFFLKEDRQNSDHERLHREVLSYVQKIERTLELSSHAVQRLNEADTDSLAQLYRHVFERYPTDVFSAQYLQQTMKEGAKFVGVKEGTDIICAASAVPNGFGGWEITDCATKKEARGNGYLSSVLCELEQWLWEEGEENVYSITRSHSFGMNVTIKKRGFSYEGTMVNNCIIGTGFEDMNIWTKRLTATNIC | not soluble
12 | MGSDKIHHHHHHMDKLDNYIVTILEKSITPRKSPFLHTILAGRRTGQAVQDAHLFQMQHLFGLVPNLKLNYLETRLKELMRQGIITVTENGYTVKQKPNFSFEMSFPSFHGFAFQQQVFAFFAHLRLAVQVVSNKHHAEKYYLPVIRDKKVQQFIKIWLQNQQQEDLADRLYIELIKWFNSLAVSRPEFLVERFSGGKLMGYTTEQIATKYQVEKWDVYFEVLHELHRLIAAIKESEEEWPLLASLIPNELMSLTSSAIKTYTLWAKGMDLEMIERIRNLKTSTIQDHFVEIRATLKEAQVPYLPEEELIQSINSRNWHLLRDIKAAFPDLDYYQIRLAVVSKEDEQ | not soluble
13 | MGSDKIHHHHHHMDLFSAMRIFIRVVERGSMSAAARDLGIGQPAVSERIEKLEAHLGTRLLRRNTRNMSLTQSGNVFYERSKTAVQAAEHALSVNEENQGLQGKIRIAAPYSAGESLLMPALLQLQNEHPELQVDVIFNDRVINPVTEGVDLSLRLGDVSEGFFVARPLGTVRRVLLASPALLAKMGHPDTPDALTDYPFAAVSGVFASNRIQLVASEDQLINVPVNIQFQSTHWRSVLSWLLAGHAIGVLQSPVCRKEIADGALIPLLSHYPIPPFSAWLLHPPAGMMSYETRICASLLEGYIRDLLLEPAG | not soluble
14 | MGSDKIHHHHHHMDQFDRTPLMTADSEALATARRVLATEARALDSLATSLGDAFLKAVTLIEGAPGRVVVTGMGKSGHVARKIAATMASTGCPAFYVHPAEASHGDLGMVTRDDAVVALSNSGETPELSDVIAYTRRFEIPLIGITSRDGSTLAAASDVALVLPPNPEACPMGLAPTTSTTLMLALGDALAVTLLERKGFTAADFQVFHPGGKLGQRLLKVTDLMHGGDGLPLVGTEASMADVLLVMTAKSLGCAGVIDSGGKLAGVLTDGDLRRHMSPDLLTAKAAEVMTASPRTVPPNLLAAEALRQMNERSITSLFVVESDGRPVGVLHVHDCLRAGLA | not soluble
